Test results reported in patent US20240301076A1 (CEPHALON, published 2024).
Substitutions are numbered along the chain they refer to. In names and notes the source's numbering stands.

T1: human CXCR2 (human, UniProt P25025 1-360)
T1 construct: also called CXC chemokine receptor 2; hCXCR2
T1 sequence: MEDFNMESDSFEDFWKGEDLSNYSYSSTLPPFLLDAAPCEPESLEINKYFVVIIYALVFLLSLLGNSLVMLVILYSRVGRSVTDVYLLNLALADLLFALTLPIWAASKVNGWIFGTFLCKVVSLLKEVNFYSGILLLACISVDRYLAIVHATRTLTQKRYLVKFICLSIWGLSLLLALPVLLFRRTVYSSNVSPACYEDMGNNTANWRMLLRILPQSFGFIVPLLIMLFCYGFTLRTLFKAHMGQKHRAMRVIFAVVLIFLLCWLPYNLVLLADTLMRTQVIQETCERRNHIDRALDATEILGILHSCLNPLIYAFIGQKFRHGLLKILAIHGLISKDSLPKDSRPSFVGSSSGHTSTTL

B1: BKO-4A8 variant VL K53D (antibody, human IgG4 S228P, lambda, V domains shown)
VH: EVQLLESGGGLVQPGGSLRLSCAASGFTFSSSTMSWVRQAPGKGLEWVSAISGRGRNTYYADSVKGRFTISRDNSRNTLYLQMNSLRAEDTAVYYCAIQMGYWGQGILVTVSS
VL: QSALTQPPSASGSPGQSVTISCIGTSSDVGGYNYVSWYQQHPDKAPKLMIYEVNDRPSGVPDRFSGSKSGNTASLTVSGLQAEDEADYYCSSYAGNNNFGVFGGGTKLTVLG
notes: IgG4 S228P, lambda; parental heavy chain; also called 4A8 VL K53D
B2: BKO-4A8 variant VL N95aK (antibody, human IgG4 S228P, lambda, V domains shown)
VH: B1 VH
VL: B1 VL with D55K, N98K
notes: IgG4 S228P, lambda; parental heavy chain; also called 4A8 VL N95aK
B3: BKO-4A8 variant VL N52D (antibody, human IgG4 S228P, lambda, V domains shown)
VH: B1 VH
VL: B1 VL with N54D, D55K
notes: IgG4 S228P, lambda; parental heavy chain; also called 4A8 VL N52D
B4: BKO-4A8 variant VL N95aD (antibody, human IgG4 S228P, lambda, V domains shown)
VH: B1 VH
VL: B1 VL with D55K, N98D
notes: IgG4 S228P, lambda; parental heavy chain; also called 4A8 VL N95aD
B5: BKO-4A8 variant VL R54Q (antibody, human IgG4 S228P, lambda, V domains shown)
VH: B1 VH
VL: B1 VL with D55K, R56Q
notes: IgG4 S228P, lambda; parental heavy chain; also called 4A8 VL R54Q
B6: BKO-4A8 variant VL V97A (antibody, human IgG4 S228P, lambda, V domains shown)
VH: B1 VH
VL: B1 VL with D55K, V101A
notes: IgG4 S228P, lambda; parental heavy chain; also called 4A8 VL V97A
B7: BKO-4A8 variant VL N94A (antibody, human IgG4 S228P, lambda, V domains shown)
VH: B1 VH
VL: B1 VL with D55K, N96A
notes: IgG4 S228P, lambda; parental heavy chain; also called 4A8 VL N94A
B8: BKO-4A8 variant VL N95aY (antibody, human IgG4 S228P, lambda, V domains shown)
VH: B1 VH
VL: B1 VL with D55K, N98Y
notes: IgG4 S228P, lambda; parental heavy chain; also called 4A8 VL N95aY
B9: BKO-4A8 variant VL V97K (antibody, human IgG4 S228P, lambda, V domains shown)
VH: B1 VH
VL: B1 VL with D55K, V101K
notes: IgG4 S228P, lambda; parental heavy chain; also called 4A8 VL V97K
B10: BKO-4A8 variant VL N94L (antibody, human IgG4 S228P, lambda, V domains shown)
VH: B1 VH
VL: B1 VL with D55K, N96L
notes: IgG4 S228P, lambda; parental heavy chain; also called 4A8 VL N94L
B11: BKO-4A8 variant VL N95aL (antibody, human IgG4 S228P, lambda, V domains shown)
VH: B1 VH
VL: B1 VL with D55K, N98L
notes: IgG4 S228P, lambda; parental heavy chain; also called 4A8 VL N95aL
B12: BKO-4A8 variant VL N95aH (antibody, human IgG4 S228P, lambda, V domains shown)
VH: B1 VH
VL: B1 VL with D55K, N98H
notes: IgG4 S228P, lambda; parental heavy chain; also called 4A8 VL N95aH
B13: BKO-4A8 variant VL K53H (antibody, human IgG4 S228P, lambda, V domains shown)
VH: B1 VH
VL: B1 VL with D55H
notes: IgG4 S228P, lambda; parental heavy chain; also called 4A8 VL K53H
B14: BKO-4A8 variant VL Y91A (antibody, human IgG4 S228P, lambda, V domains shown)
VH: B1 VH
VL: B1 VL with D55K, Y93A
notes: IgG4 S228P, lambda; parental heavy chain; also called 4A8 VL Y91A
B15: BKO-4A8 variant VL N94W (antibody, human IgG4 S228P, lambda, V domains shown)
VH: B1 VH
VL: B1 VL with D55K, N96W
notes: IgG4 S228P, lambda; parental heavy chain; also called 4A8 VL N94W

molecular target: T1, human CXCR2; experiment: flow cytometry, CXCR2-transfected Expi293F cells
Experimental: Harvested cells were resuspended in FACS buffer (1×PBS+0.5% (w/v) bovine serum albumin (BSA)+2 mM EDTA pH 7.2). Approximately 2×10⁵ cells were added per well in a 96-well round-bottomed plate. Cells were pelleted by centrifugation at 400 g for 5 mins at 4° C. and supernatants discarded. 25 μL of each test antibody or control antibody was added to the cells and incubated for 30 minutes at 4° C. Cells were washed twice in 100 μL FACS buffer followed by centrifugation at 400 g for 5 mins at 4° C.
For detection, 50 μL of secondary antibody (Table 2) was added to relevant samples. Commercially available antibodies that bound to transfected CXCR family members were used as positive controls to ensure that the cells were expressing the receptors. Cells were washed twice in 200 μL of FACS buffer followed by centrifugation at 400 g for 5 mins at 4° C. Before sample acquisition, cells were resuspended in 100 μL of FACS buffer. Samples were acquired using the high throughput sampler on a FACSCanto™ II cytometer (Beckton-Dickinson).
Each variant heavy chain was co-expressed with the parental light chain and vice versa.

| Binder | Fold change in binding relative to BKO-4A8 [fold] |
| --- | --- |
| B1 | 1.4 |
| B2 | 1 |
| B3 | 1.7 |
| B4 | 2.3 |
| B5 | 1.6 |
| B6 | 1.7 |
| B7 | 1 |
| B8 | 1.7 |
| B9 | 1 |
| B10 | 0.88 |
| B11 | 1.7 |
| B12 | 1.3 |
| B13 | 1.4 |
| B14 | 1.7 |
| B15 | 0.63 |
